Data from PMC10998612 (Proceedings of the National Academy of Sciences of the …, 2024).

Target: T1, eIF2γ (γ subunit of eIF2, as in the eIF2αγ dimer) (human, UniProt P41091 1-472)
T1 construct: eIF2 gamma subunit (eIF2γ); The γ chain of m6, written alone for the pairs that touch in the crystal structure; also called human eIF2γ; source: E. coli, co-expressed with eIF2α and CDC123 from a multicistronic plasmid, purified as eIF2αγ
Experiment: crystal structure; 7.5 mg/mL eIF2αγ combined with PPP1R15A_R3^420-452 at a molar ratio of 1:8 with 0.5 mM GMPPNP and 5 mM MgCl2; sitting drop, 20 °C; 11 to 12% PEG 6000, 0.1 M Tris-HCl pH 8.5; 3.35 Å
Settings: both partners purified

T1 sequence (P41091 whole entry): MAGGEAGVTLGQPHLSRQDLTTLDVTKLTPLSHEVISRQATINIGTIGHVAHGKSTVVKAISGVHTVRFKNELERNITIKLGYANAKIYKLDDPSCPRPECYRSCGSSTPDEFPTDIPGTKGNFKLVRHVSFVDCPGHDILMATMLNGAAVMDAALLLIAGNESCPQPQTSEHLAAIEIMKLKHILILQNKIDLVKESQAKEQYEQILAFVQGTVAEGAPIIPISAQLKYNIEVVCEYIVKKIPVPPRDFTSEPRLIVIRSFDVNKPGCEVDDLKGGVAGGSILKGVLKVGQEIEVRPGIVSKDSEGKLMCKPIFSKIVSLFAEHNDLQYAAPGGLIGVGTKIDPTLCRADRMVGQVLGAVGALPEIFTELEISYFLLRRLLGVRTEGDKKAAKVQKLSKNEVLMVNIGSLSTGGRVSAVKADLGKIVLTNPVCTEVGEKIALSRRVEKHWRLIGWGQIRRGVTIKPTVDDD

binding result: binds
B1: PPP1R15A^420-452 (R3) peptide (peptide)
peptide: not shown
notes: residue numbers based on UniProt O75807; Only residues 426-434 were built in the structure
